Test results from paper PMC8274835.

Assays:
Test in all cases: co-IP; mCherry-Rac1 transiently expressed in HEK293T for 16 h, precipitated with the RFP-TRAP kit (Chromotek); endogenous RhoGDI by Western blot, quantified (n = 3)
[1] = molecular target: mCherry-Rac1 F28L (UniProt P63000)
[2] = molecular target: mCherry-Rac1 G12V (UniProt P63000)
[3] = molecular target: mCherry-Rac1 P29S (UniProt P63000)
[4] = molecular target: mCherry-Rac1 Y64F (UniProt P63000)

reduction of co-precipitated GDI against Rac1 WT [1]: 50%
reduction of co-precipitated GDI against Rac1 WT [2]: 50%
reduction of co-precipitated GDI against Rac1 WT [3]: 50%
reduction of co-precipitated GDI against Rac1 WT [4]: 50%
Substance: RhoGDI (endogenous, HEK293T) (from UniProt P52565 1-204) (natural protein)
